Reference: the RNAGym collection of RNA variant scans (doi:10.7554/elife.80360)

B1: Hairpin Ribozyme (parent)
chain: GUCCUCUUUCACGUGCGCGUGAAAGAGAGAAGUGAACCAGAGAAACACACGUUGUGGUAUAUUACCUGGUA

Variants of: B1
Assay: self-cleavage, relative activity (ratio to wild type); higher = more cleavage; co-transcriptional

Q: For GUCCUCUUUCACGUGCGCGUGAAACAGAGAAGUGAACUAGAGAAACACACGUUGUGGUAUAUUACCUGGUA [G25C C38U], which self-cleavage is on record?
A: The self-cleavage was 0.263.

Q: For GUCCUCUUUCACGUGCGCGUGAAACAGAGAAGUGAACCAGAGAAACACACGUUGUGGUAUAUUCCCUGGUA [G25C A64C], which self-cleavage is on record?
A: Its self-cleavage is 0.0865.

Q: With GUCCUCUUUCACGUGCGCGUGAAACAGAGAAGUGAACCAGAGAAACACACGUUGUGGUAUAUUGCCUGGUA [G25C A64G] as the variant, how does the self-cleavage read?
A: Its self-cleavage is 0.4.

Q: Which self-cleavage does the source give for GUCCUCUUUCACGUGCGCGUGAAACAGAGAAGUGAACCAGAGAAACACACGUUGUGAUAUAUUACCUGGUA [G25C G57A] here?
A: The self-cleavage was 0.176.

Q: For GUCCUCUUUCACGUGCGCGUGAAAAAGAGAAGUGAACCAGAUAAACACACGUUGUGGUAUAUUACCUGGUA [G25A G42U], which self-cleavage is on record?
A: Its self-cleavage is 0.186.

Q: Which self-cleavage does the source give for GUCCUCUUUCACGUGCGCGUGAAAAAGAGAAGUGAACCACAGAAACACACGUUGUGGUAUAUUACCUGGUA [G25A G40C] here?
A: Its self-cleavage is 0.145.

Q: Which self-cleavage does the source give for GUCCUCUUUCACGUGCGCGUGAAAAAGAGAAGUGAACCAAAGAAACACACGUUGUGGUAUAUUACCUGGUA [G25A G40A] here?
A: Its self-cleavage is 0.191.

Q: For GUCCUCUUUCACGUGCGCGUGAAACAGAGAAGUGAACCAGAGAAAGACACGUUGUGGUAUAUUACCUGGUA [G25C C46G], which self-cleavage is on record?
A: The self-cleavage was 0.115.

Q: Which self-cleavage does the source give for GUCCUCUUUCACGUGCGCGUGAAACAGAGAAGUGAACCAGAGAAACACACGUUGUGGUAUAUUACCUCGUA [G25C G68C] here?
A: Its self-cleavage is 0.187.

Q: For GUCCUCUUUCACGUGCGCGUGAAACAGAGAAGUGAACCAGAGAAACACACGUUGUGGUAUAUUACCUUGUA [G25C G68U], which self-cleavage is on record?
A: Its self-cleavage is 0.206.

Q: With GUCCUCUUUCACGUGCGCGUGAAAAAGAGAAGUGAACCAGAGAAACACACGUUGUGGUAUAUUACCUGUUA [G25A G69U] as the variant, how does the self-cleavage read?
A: The self-cleavage was 0.0604.

Q: Which self-cleavage does the source give for GUCCUCUUUCACGUGCGCGUGAAAAAGAGAAGUGAACCAGAGAAACACACGUUGUGGUAUAUUACCUGAUA [G25A G69A] here?
A: The self-cleavage was 0.238.

Q: For GUCCUCUUUCACGUGCGCGUGAAAAAGAGAAGUGAACCAGAGAAACACACGUUGUUGUAUAUUACCUGGUA [G25A G56U], which self-cleavage is on record?
A: Its self-cleavage is 0.117.

Q: Which self-cleavage does the source give for GUCCUCUUUCACGUGCGCGUGAAACAGAGAAGUGAAACAGAGAAACACACGUUGUGGUAUAUUACCUGGUA [G25C C37A] here?
A: Its self-cleavage is 0.281.

Q: For GUCCUCUUUCACGUGCGCGUGAAAAAGAGAAGUGAACCAGAGAAACACACGUUGUGGUAUAUUACCUCGUA [G25A G68C], which self-cleavage is on record?
A: Its self-cleavage is 0.22.

Q: Which self-cleavage does the source give for GUCCUCUUUCACGUGCGCGUGAAAAAGAGAAGUGAACCAGAGAAACACACGUUGUGGUAUAUUACCCGGUA [G25A U67C] here?
A: The self-cleavage was 0.166.

Q: Which self-cleavage does the source give for GUCCUCUUUCACGUGCGCGUGAAAAAGAGAAGUGAACCAGAGAAACACACGUUGUGGUAUAUUACCGGGUA [G25A U67G] here?
A: The self-cleavage was 0.176.

Q: For GUCCUCUUUCACGUGCGCGUGAAAAAGAGAAGUGAACCAGAGAAACACACGUUGUGGUAUAUUACCUGGGA [G25A U70G], which self-cleavage is on record?
A: Its self-cleavage is 0.509.

Q: Which self-cleavage does the source give for GUCCUCUUUCACGUGCGCGUGAAACAGAGAAGUGAACCAGAGAAACACACGUUGUGGUGUAUUACCUGGUA [G25C A59G] here?
A: Its self-cleavage is 0.123.

Q: For GUCCUCUUUCACGUGCGCGUGAAACAGAGAAGUGAACCAGAGAAACACACGCUGUGGUAUAUUACCUGGUA [G25C U52C], which self-cleavage is on record?
A: Its self-cleavage is 0.657.

Q: With GUCCUCUUUCACGUGCGCGUGAAACAGAGAAGUGAACCAGAGAAACACACGUUGUGGUAUAUUAUCUGGUA [G25C C65U] as the variant, how does the self-cleavage read?
A: The self-cleavage was 0.324.

Q: For GUCCUCUUUCACGUGCGCGUGAAACAUAGAAGUGAACCAGAGAAACACACGUUGUGGUAUAUUACCUGGUA [G25C G27U], which self-cleavage is on record?
A: The self-cleavage was 0.164.

Q: Which self-cleavage does the source give for GUCCUCUUUCACGUGCGCGUGAAACAGAGAAGUGAACCAGAGAUACACACGUUGUGGUAUAUUACCUGGUA [G25C A44U] here?
A: The self-cleavage was 0.112.

Q: With GUCCUCUUUCACGUGCGCGUGAAACAGAGAAGUGAACCAGAGAGACACACGUUGUGGUAUAUUACCUGGUA [G25C A44G] as the variant, how does the self-cleavage read?
A: The self-cleavage was 0.085.

Q: With GUCCUCUUUCACGUGCGCGUGAAACAGAGAAGUGAACCAGAGAAACACACGUUGAGGUAUAUUACCUGGUA [G25C U55A] as the variant, how does the self-cleavage read?
A: Its self-cleavage is 0.163.

Q: With GUCCUCUUUCACGUGCGCGUGAAAAAGAGAAGUGAACCAGAGAAACACACGUUGUGGUAUAUUAUCUGGUA [G25A C65U] as the variant, how does the self-cleavage read?
A: Its self-cleavage is 0.215.

Q: With GUCCUCUUUCACGUGCGCGUGAAAAAGAGAAGUGAACCAGAGAAACACACGUUGUGGUAUAUAACCUGGUA [G25A U63A] as the variant, how does the self-cleavage read?
A: The self-cleavage was 0.108.

Q: Which self-cleavage does the source give for GUCCUCUUUCACGUGCGCGUGAAAAAGAGAAGUGAACCAGAGAAACACACGUUGUGGUAUAUCACCUGGUA [G25A U63C] here?
A: Its self-cleavage is 0.17.

Q: Which self-cleavage does the source give for GUCCUCUUUCACGUGCGCGUGAAAAAGAGAAUUGAACCAGAGAAACACACGUUGUGGUAUAUUACCUGGUA [G25A G32U] here?
A: The self-cleavage was 0.144.

Q: With GUCCUCUUUCACGUGCGCGUGAAAAAGAGAAGUGAACCAGAGAAACACGCGUUGUGGUAUAUUACCUGGUA [G25A A49G] as the variant, how does the self-cleavage read?
A: The self-cleavage was 0.275.

Q: With GUCCUCUUUCACGUGCGCGUGAAACAGAGAAGUGCACCAGAGAAACACACGUUGUGGUAUAUUACCUGGUA [G25C A35C] as the variant, how does the self-cleavage read?
A: Its self-cleavage is 0.474.

Q: With GUCCUCUUUCACGUGCGCGUGAAAAAGAGAAGUGAACCAGAGAAACACACGUUGUGGUAUAUUGCCUGGUA [G25A A64G] as the variant, how does the self-cleavage read?
A: Its self-cleavage is 0.469.

Q: For GUCCUCUUUCACGUGCGCGUGAAACAGAGAAGUGAUCCAGAGAAACACACGUUGUGGUAUAUUACCUGGUA [G25C A36U], which self-cleavage is on record?
A: Its self-cleavage is 0.397.

Q: For GUCCUCUUUCACGUGCGCGUGAAAAAGAGAAGUGAACCAGAGAAAAACACGUUGUGGUAUAUUACCUGGUA [G25A C46A], which self-cleavage is on record?
A: The self-cleavage was 0.105.

Q: With GUCCUCUUUCACGUGCGCGUGAAACAGAGAAGUGAACCAGAGAAACGCACGUUGUGGUAUAUUACCUGGUA [G25C A47G] as the variant, how does the self-cleavage read?
A: The self-cleavage was 0.071.

Q: For GUCCUCUUUCACGUGCGCGUGAAACAGAGAAGUGAACCAGAGAAACACACCUUGUGGUAUAUUACCUGGUA [G25C G51C], which self-cleavage is on record?
A: The self-cleavage was 0.435.

Q: For GUCCUCUUUCACGUGCGCGUGAAAAAGAGAAGUGAACCAGAGAAACACACGUUGCGGUAUAUUACCUGGUA [G25A U55C], which self-cleavage is on record?
A: Its self-cleavage is 0.208.

Q: With GUCCUCUUUCACGUGCGCGUGAAACAGGGAAGUGAACCAGAGAAACACACGUUGUGGUAUAUUACCUGGUA [G25C A28G] as the variant, how does the self-cleavage read?
A: Its self-cleavage is 0.883.
